Assay results from the DeepSol protein solubility set.

Assay: soluble on expression in E. coli; label from the status in PepcDB or PDB records

Sequence	soluble on expression in E. coli
MNTVADVMAGNDGEYCFHARTGKYGVYLKQDWRNEYNVGDIAVYEDSKPGTLNDFLIAPDEGDLKPDVVKRFEEMVAQAQQSAGAAAGNAQQTAQDVAAAATARDDAQRFAEKARQDATVTAEDRKATAEDVTSTGANAAAAGQSAQDAAGYARAAEQAKNDIDAALTGTLKTANHLSETAAAGEKAQQKSRDNLGLKSAATMEAQSDIYDRTKGRLAIPGAFGFGCAFLPEDVIRFDTKSDFLAWVRNALPGEYSVAGPYGIIIPDTRFEGVLSIRWTDARPETTEPRYRAKSLTFYGINGPIYHTRYCYWPISRLTGWVKINITTEDIIYRIVASSVRNRWGDPDIGGLIIAAYQGEADGDKVIRLVRGQSYRGSRLGPVGISVPGTPTGTYIVSPQFFITGCSEHSLPGSYCALSGVPDAHVSGAMPGLFIRTSRGMHRGN	not soluble
MGSDKIHHHHHHMRKPRVFIGSSVESLPIADAIAENLEFDAEVTIWRNGTFNLSSNALDDLISKAKSVDFSIFIFSPDDLTIMKSREKYAVRDNVVFELGLFIGAIGKNRCFIVKPRDVDLHFPSDLLGITPTDFDANRSDEDLASSLNYSATQIKRAFKAQGLLELDSVQEKPRIDVNAQLATLTDTDMIALSVLLESVNSDVDGCASWDLYNRFNNYDFSSAQVNLAVIKLTRSGMIEKLNTSDFNGNEYFSYKLTEYGIDVCLSNQNRIETLIAPKKRQSGRDVPQQPPVRS	not soluble
MSGNYVINIGRQLGSGGKEIGEKLAARLGIDFYDKELINLASEESGLCKEFFEKADEKASQGIIGGLFGMRFPFISEGAMPCTNCLSNDALFKVQSDVIRRLAAEKSCVFVGRCADYILREHPRCANVFISATKEDRIARLCQMHRIDEEAAEEMIEKADKRRSEYYNYYSYKTWGAAATYHLCVDSSSLGIEETVRFVEEFVAKKLQIGM	not soluble
GPGSMVEACFLCLDSTEYMRNGDQYPTRMMAEQDAACLLANAKLQANAENTLGFLTTGGNACTVYETLTNNVDAIMTSIGSIPVNGKRCNFSSGLQIASLALSHRTNSRAEKRIVAFVGSPIGETAAELEALAKKLRKDDVAVDVVAFGVESNVELLQAFVKKVSKKENSRFLAVAARENLTDKLMSNAILLGEDLPEGAEGGGASMSGFGVDPNMDPELAMALRLSMEDEMQRQAAAAAAAASSAAPESAPASGSAATPAAPAAPAAAPVVDEDELSYENMSEEEMMRRAIALSLQDTAQGASDTASSPSVPQPATTSEACRNEEENEDDFAKGVEAALEEEEDEENRS	soluble
AAKVHVDIEADSPFIKSLQKAFPSFEVESLQVTPNDHANARAFSHLATKLIEQETDKDLILDIGSAPSRRMMSTHKYHCVCPMRSAEDPERLDSYAKKLAAASGKVLDREIAGKITDLQTVMATPDAESPTFCLHTDVTCRTAAEVAVYQDVYAVHAPTSLYHQAMKGVRTAYWIGFDTTPFMFDALAGAYPTYATNWADEQVLQARNIGLCAASLTEGRLGKLSILRKKQLKPCDTVMFSVGSTLYTESRKLLRSWHLPSVFHLKGKQSFTCRCDTIVSCEGYVVKKITMCPGLYGKTVGYAVTYHAEGFLVCKTTDTVKGERVSFPVCTYVPSTICDQMTGILATDVTPEDAQKLLVGLNQRIVVNGRTQRNTNTMKNYLLPIVAVAFSKWAREYKADLDDEKPLGVRERSLTCCCLWAFKTRKMHTMYKKPDTQTIVKVPSEFNSFVIPSLWSTGLAIPVRSRIKMLLAKKTKRELIPVLDASSARDAEQEEKERLEAELTREALPPLVPIAPAETGVVDVDVEELEYHAGA	not soluble
MGSDKIHHHHHHMNYQQLFRNRLAVLATMHQKEKVIAPLLEQELGIKVIVPPDFNTDIFGTFTREVKRPGTQIAAARLKAEKVLELTGENLAIASEGSFAPHPLVPYIYSNREIIILLDKINDIEIIGEEFSTYTNFNHQAVESLDEAYTFAKKVGFPEHGLVVWFENSEKKCHEIIKGITQETALIEAINFGLEKSPNSKINLETDMRAIYNPTRMKNIEKATHNLLQKISSCCPQCHTPGFETTERIKGLPCELCHTPTTLTLRAIYQCKKCGFRQDKLFPNGIEFADPSQCVYCNP	not soluble
MNQEYLDFELPIAELEAKIEALRAASDDKVDLTDEIKRLQKKSNELTKKTFANLDAWQVSRMARHPNRPYTLDYIEHIFTEFEELAGDRAFADDKAIVGGLARLDGRPVMVIGHQKGRSVKEKVQRNFGMPAPEGYRKALRLMEMAERFKLPIITFIDTPGAYPGIGAEERGQAEAIARNLREMAQLTVPVICTVIGEGGSGGALAIGVGDKVNMLQYSTYSVISPEGCASILWKSAEKASTAAEVMGLTASRLKELNLIDSIVQEPLGGAHRSYLEIAENLKLRLKEDLAELDELSKEELLNRRYERLMSYGYC	not soluble
MSLKPKRILLVNEQRSFQVMMKAMLINIGISRITYANSAEEARRRCQKETFDIYLLDYELGVGENGRQLLESLRDQKLIPPQSVVIMVSGDSSRAMVLSALEAEPDEYLMKPFSQEQFSFRLKRALARRQALESVFSALAKEDLPTLLAACAERADAVPRFANFCRCLQADTQLKLGQAKEARSLMRQLLAGQENSWARLTLGKACHTLGLNEEAVSHLQATLKNTPLMVEAHLWLAESQLALGNDEQAQQELKRAVDISPQSVQLSRRLAEVCLLRHDYAQAKDVLLSLIDLSRNSIHRTPHYLGAYIQSLTLYALNSNEGHHHHHH	not soluble
MGFQLRGDYLLDDDLQTLYVSSSDIHGELTRLVKLNLTRNQVNVLKHSKADVPELRILSDKLDRRTLSLFSNGQVAEYELIYSVHYQVRFTGEDARDFRFELYRDYQDDPNIALAKSRELSLLLSEMRTSAADKILRDLARIQRLEHHHHHH	soluble
MGSDKIHHHHHHMALVRLSQIHFNFQTAAQPLFEDLNLTIAAGECHLIHGYTGCGKSTLLKLLQGILERPWEGEREIAEGATLGVVMQDPNVQLLRQTLGAEVAFALENLGVASSEMLLQVRSALRRVGLYISLDTPIASLSLGQRYRLMIAAQLVLEPDLLLLDEPWAQLDDQGVAELSAVLHQLKQQGVALLIVEHHRGVFKDLVTHRWQLSQGQLQALAPAECEATSEQVSWRESPAWPQGSAVIDSHGFTLAFRERQKLFDADSLLLFPGEIAALVGDNGCGKSTLLKSLAGIQADIDPLGIKVFGKKPKLGRFGADLALLHQRPSRQLFENTVIEEMQFSLKRFGLPLERAIELLGQLGLTTLARHSPHTLSYGQQHLIALASLACLRPKLLLLDDPFAGLDEHFTDKIVALLTELSRQGTALVIASHRPIAALPVDRLWRVVDGRLESLSASPQAYSRVG	not soluble
MKTRSEVFQFEKELKWEHPAPGIRRQIMGYDGQLMMVKVEFEKGAVGTLHEHYHSQATYVASGKFELTIGDRKEILSTGDGYYVAPDEPHGCVCLEAGVLIDTFSPMRADFLE	not soluble
MSLGTGSLGLTFHNFSFGDLFNPSAYHPLPHGDGQTLALQWQFGSNHYRTLSLSASDPWAFGTHTSLGFTAFKTKQTYDLTSSNLSTKTINQYGADITIGRRLTWPDDYFAISWRLGYLHTKGGFVSFLNETNAPEEAEEFSITQTISRNSIDNPIYPRHGSKNVFTAQLAGGVLPGTINFYKLIGKTSWFFPVSHNLVVNVAAQQGYLNTFSKDDYIPYTDYFYMGGSGMSSLPTIPLRGYPDHSLGQQFEGETDLYGGRVYSKFTTEVRYPLTLSSSASIYALAFAEAGNLWASASDFNLTDLKKSAGIGLRLYLPIIGQIGIDYGYGFDSVPSEPGKKPQGWNFTFSFGQPNEGHHHHHH	not soluble
MAKPIPVKVVVLTTFEIGAVTGDRPGEFQPWVEGLPLTETIAVPGLRHPARYSPKDGVLGVMTDMRARARESVAALLLDKRFDFSKTYWLVAGIAGVDPKAASIGSAAWARYVVDADPIYEVDDREIPADWPYGLYALETERPNVKGSAEGSSGMVWALNWRLVDWAYGLTAKVEIPDHPGLAALRAPYVGDPNAQRPPFVLKGEALGATRFWHGAKRTQWAQDWVKLWTDGAGVFVMTDCEDQGILDVLDLYAKAGRVDFQRVMVLRTASNYSRPPLGAPAFPRAFHDEGAVSAFDSAYRVGSVVVRELTARWDRYEANTPDMTAIGGTAKLEHHHHHH	not soluble
MSAKNVLKMANRNSANKRDILGDLLSLSSNKTVNLNEMAHGQGKRKMASIDGQKENPKRIKMSQHMTAKEVKIPLLRTPDEEARKIEKLRREARIKRSKEVHYDAAEQQQIMMNYEWTVQMEEQEKLRKKVEKKH	not soluble
MAHHHHHHMQDEHKFNAEDRRRAPPPNTPERALDYHERTNDDKLIAHASQVNHLSKPRHRNCLTEFIIVETPVVSFLVDSSDPSLCLLRRSGRQGTKNEEKGVH	soluble
MAHHHHHHMPSEYHSSLADVSPRLSSRQRCSVRAGLSSTPRHAQGRRHLDPHHFTNLTDDAKRAEGRLGRAHVASSEQQKRADAYYATKQATVAQPPGAECNLYLKSYYYTPLSKQETPSPPPRPTTGFRADAQSTSFQLAEARLRKIKREHPQYEEEVTRALQQQHGDYSIVSTEQKISRRIAVEEYADGTNARMAQIEASTKYRGTPDLGSPAPAIKRSVPYALSEECPPRADTQLSCTSHVRLYPGCGRSSFPPETPVKPRARHLYDGPVPYDTTAASGEAYPSPPAVGERCNIYAKPTLVHVDERRHRDCVEDADSLAMKRARARSGARASQERPDFIFGPGPAPQPRPPSLRHHTEARWKAQERNAENRRTGRALYPQSHRSTSLW	not soluble
SLTRNNELIAVGKGSSLKRLPVFGMEPRILYNPLQGQKCIVQTTSWSQCSKTCGTGISTRVTNDNPECRLVKETRICEVRPCGQPVYSSLKKGKKCSKTKKSPEPVRFTYAGCLSVKKYRPKYCGSCVDGRCCTPQLTRTVKMRFRCEDGETFSKNVMMIQSCKCNYNCPHANEAAFPFYRLFNDIHKFRDEG	not soluble
MGSDKIHHHHHHMNEILKNSPISRAKLSEITGLNKSTISSQVNTLLENKFIFEIGEGQSRGGRRPVMLVFNKNAGYSIGIDVGVDYINGILTDLEGNIVLEKSYNLPIPSSDEVKEILFTIIKYFVSHMPESPYGLIGIGICVPGLVDKQQKIIFMPNSKWEIKDLKAVIETEFNVPVFIENEANAGAYGEKVFGNTKNFSNIIYVSINVGIGIGIIINNELYKGINGFSGEMGHMAIDFNGPKCSCGNRGCWELYASEKALLNSFFKDGKAISCHEIIELAHKNDVEVLNALQNFGFYIGIGLTNILNTFDAEAVILRNHIIESNPIVLNAIKNAVSSRVYSQIEGTYELLPSSLGKNAPALGTTSIVIEHFLNK	not soluble
MSKMLYRVELIITNKEGVRDPEGETIQRYVVSRFSDKIIETRAGKYLVFRVNSSSQQEATELVKKLADEMRLYNPIVHKIEIRANRIEDSSN	soluble
MSLDLGSNSFHMVIARVVDGAMQIIGRLKQRVHLADGLGPDNMLSEEAMTRGLNCLSLFAERLQGFSPASVCIVGTHTLRQALNATDFLKRAEKVIPYPIEIISGNEEARLIFMGVEHTQPEKGRKLVIDIGGGSTELVIGENFEPILVESRRMGCVSFAQLYFPGGVINKENFQRARMAAAQKLETLTWQFRIQGWNVAMGASGTIKAAHEVLMEMGEKDGIITPERLEKLVKEVLRHRNFASLSLPGLSEERKTVFVPGLAILCGVFDALAIRELRLSDGALREGVLYEMEGRFRHQDVRSRTASSLANQYHIDSEQARRVLDTTMQMYEQWREQQPKLAHPQLEALLRWAAMLHEVGLNINHSGLHRHSAYILQNSDLPGFNQEQQLMMATLVRYHRKAIKLDDLPRFTLFKKKQFLPLIQLLRLGVLLNNQRQATTTPPTLTLITDDSHWTLRFPHDWFSQNALVLLDLEKEQEYWEGVAGWRLKIEEESTPEIAAEGHHHHHH	not soluble
